1 molecule from PMC3949604 can be followed below.

In this series the target is AhR (baculovirus);Arnt (baculovirus) (human;human, UniProt P35869;P27540 1-848;1-789, |). Briefly: EMSA. (In general: In EMSA bound probe runs differently from free probe, usually more slowly.)
Chain of AhR (baculovirus);Arnt (baculovirus) (P35869 whole entry, chain 1 of 2): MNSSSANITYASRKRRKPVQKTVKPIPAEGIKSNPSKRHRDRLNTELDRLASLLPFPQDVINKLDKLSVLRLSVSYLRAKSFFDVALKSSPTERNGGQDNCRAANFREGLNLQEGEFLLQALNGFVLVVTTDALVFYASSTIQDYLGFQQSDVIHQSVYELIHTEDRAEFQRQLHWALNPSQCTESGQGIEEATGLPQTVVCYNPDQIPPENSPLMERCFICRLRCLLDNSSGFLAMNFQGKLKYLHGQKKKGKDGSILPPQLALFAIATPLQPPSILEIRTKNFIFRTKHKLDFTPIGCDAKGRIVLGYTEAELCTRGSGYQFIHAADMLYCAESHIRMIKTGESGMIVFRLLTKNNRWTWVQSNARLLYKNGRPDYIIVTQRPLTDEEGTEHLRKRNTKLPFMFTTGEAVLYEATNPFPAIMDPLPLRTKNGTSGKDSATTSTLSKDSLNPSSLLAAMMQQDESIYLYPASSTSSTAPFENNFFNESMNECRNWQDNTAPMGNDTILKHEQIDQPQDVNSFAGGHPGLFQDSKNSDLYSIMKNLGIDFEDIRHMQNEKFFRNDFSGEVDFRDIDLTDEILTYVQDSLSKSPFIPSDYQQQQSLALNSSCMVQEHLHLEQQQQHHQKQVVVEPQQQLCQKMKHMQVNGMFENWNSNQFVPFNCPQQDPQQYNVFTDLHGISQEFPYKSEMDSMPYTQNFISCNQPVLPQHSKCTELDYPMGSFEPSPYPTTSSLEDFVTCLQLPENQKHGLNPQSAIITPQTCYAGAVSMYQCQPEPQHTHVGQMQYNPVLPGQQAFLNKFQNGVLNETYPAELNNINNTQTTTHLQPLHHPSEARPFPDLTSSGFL
Chain of AhR (baculovirus);Arnt (baculovirus) (P27540 whole entry, chain 2 of 2): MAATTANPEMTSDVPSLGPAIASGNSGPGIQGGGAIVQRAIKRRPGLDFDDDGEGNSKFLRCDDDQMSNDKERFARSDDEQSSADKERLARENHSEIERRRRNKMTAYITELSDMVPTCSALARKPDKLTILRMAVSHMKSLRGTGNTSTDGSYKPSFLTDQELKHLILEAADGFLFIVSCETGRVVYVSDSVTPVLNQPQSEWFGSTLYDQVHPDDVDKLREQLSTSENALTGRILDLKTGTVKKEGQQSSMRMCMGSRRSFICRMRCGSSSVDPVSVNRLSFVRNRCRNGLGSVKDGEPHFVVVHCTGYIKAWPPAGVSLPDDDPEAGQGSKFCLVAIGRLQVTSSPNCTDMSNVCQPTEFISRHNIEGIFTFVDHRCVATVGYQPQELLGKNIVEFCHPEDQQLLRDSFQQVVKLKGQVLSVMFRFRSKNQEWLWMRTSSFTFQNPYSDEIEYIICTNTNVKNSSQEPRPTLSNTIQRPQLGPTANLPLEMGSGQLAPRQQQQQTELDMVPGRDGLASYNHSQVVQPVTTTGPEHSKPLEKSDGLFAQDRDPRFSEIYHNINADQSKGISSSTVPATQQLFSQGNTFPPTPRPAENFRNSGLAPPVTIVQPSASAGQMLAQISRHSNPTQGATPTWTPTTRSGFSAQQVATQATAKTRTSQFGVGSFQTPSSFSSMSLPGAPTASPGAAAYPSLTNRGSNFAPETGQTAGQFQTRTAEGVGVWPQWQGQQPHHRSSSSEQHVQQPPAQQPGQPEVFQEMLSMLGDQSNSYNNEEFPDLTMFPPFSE

B1: DRE gel shift probe (OL439/OL440) (dsDNA)
DNA 1: TCGAGTAGATCACGCAATGGGCCCAGC
DNA 2: TCGAGCTGGGCCCATTGCGTGATCTAC
As to B1, the binding result was “binds”.
